Data reported in patent publication US20210380703A1 (RIGEL PHARMACEUTICALS, published 2021).
Numbering of substitutions follows the chain as printed.

B1: 365_F11 (antibody, V domains shown)
VH: EVQLLESGGGLVQPGGSLRLSCAASGFTFDSYSMNWVRQAPGKGLEWVSGINYNSGYKGYADSVKGRFTISRDNSKNTLYLQMNSLRAEDTAVYYCARAANWHDTHLDYWGQGTLVTVSS
VL: DIQMTQSPSSLSASVGDRVTITCRASQSIISYVNWYQQKPGKAPKLLIYAATSRASGVPSRFSGSGSGTDFTLTISSLQPEDFATYYCQQSYNTPLTFGGGTKVEIK
notes: Group I
B2: 365_G06 (antibody, V domains shown)
VH: B1 VH with S33G, N35H, S49A, S55G, K58T, G59S, N101T
VL: B1 VL with I30L, V33L, R54L, Y92D, N93S
notes: Group II
B3: 366_B07 (antibody, V domains shown)
VH: B1 VH with D30S, S31D, S33G, S55G, K58T, G59S, A99G
VL: B1 VL with I30V, V33L, L47V, A51T, T94S
notes: Group III
B4: 366_G12 (antibody, V domains shown)
VH: B1 VH with D30S, S33G, N35H, A99G
VL: B1 VL with I30L, V33L, A55H
notes: Group III
B5: 366_A02 (antibody, V domains shown)
VH: B1 VH with S33G, S49A, G50S
VL: B1 VL with I30V, N93D, T94L
notes: Group I
B6: 366_F10 (antibody, V domains shown)
VH: B1 VH with S49A, S55G, K58T
VL: B1 VL with I30V, V33L, L47V, N93D
notes: Group I
B7: 366_E01 (antibody, V domains shown)
VH: B1 VH with S33G, G50N, S55G, G59S, A99G
VL: B1 VL with I30L, S31T, V33L, N93S, T94S
notes: Group III
B8: 367_A06 (antibody, V domains shown)
VH: B1 VH with S33G, S49A, G50S, S55G, A99G
VL: B1 VL with I30L, A55H, N93D
notes: Group III
B9: 367_B11 (antibody, V domains shown)
VH: B1 VH with D30S, S31D, N35H, S49A, G50N, K58T, G59S, H106A
VL: B1 VL with I30L, V33L, L47V, N93S
notes: Group I
B10: 365_G07 (antibody, V domains shown)
VH: B1 VH with S33G, N35H, G50S, S55G, K58T, G59S, H106A
VL: B1 VL with I30V, V33L, N93D, T94N
notes: Group I
B11: 365_G08 (antibody, V domains shown)
VH: B1 VH with D30S, S33G, N35H, S49A, G50S, S55G, K58T, G59S, N101T
VL: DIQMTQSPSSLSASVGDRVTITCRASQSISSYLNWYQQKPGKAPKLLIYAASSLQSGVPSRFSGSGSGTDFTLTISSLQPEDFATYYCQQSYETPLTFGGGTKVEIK
notes: Group II
B12: 367_C06 (antibody, V domains shown)
VH: B1 VH with N35H, S49A, G50S, S55G, G59S, N101T
VL: B1 VL with I30L, S31T, V33L, L47V, R54L, A55H, N93D
notes: Group II
B13: 367_C09 (antibody, V domains shown)
VH: B1 VH with S33G, N35H, S49A, G50S, S55G, K58T, G59S
VL: B1 VL with I30L, L47V, A55H
notes: Group I
B14: 367_B09 (antibody, V domains shown)
VH: B1 VH with S33G, N35H, S49A, G50S, S55G, K58T, G59S, H106A
VL: B1 VL with I30L, L47V, N93E, T94N
notes: Group I
B15: 366_H01 (antibody, V domains shown)
VH: B1 VH with S31D, N35H, S49A, G50N, S55G, K58T, G59S, N101T
VL: B1 VL with I30L, S31T, V33L, L47V, A51T, A55H, N93E, T94S
notes: Group II
B16: 367_C12 (antibody, V domains shown)
VH: B1 VH with D30S, S33G, N35H, S55G, K58T, G59S, N101T
VL: B1 VL with I30L, A51T, A55H, N93E, T94S
notes: Group II
B17: 365_G09 (antibody, V domains shown)
VH: B1 VH with D30S, S55G, G59S, A99G
VL: B1 VL with S31T, V33L, L47V, T94S
notes: Group III
B18: 366_F02 (antibody, V domains shown)
VH: B1 VH with D30S, S33G, K58T, A99G
VL: B1 VL with I30L, S31T, V33L, L47V, A55H, N93D, T94N
notes: Group III
B19: 365_G05 (antibody, V domains shown)
VH: B1 VH with D30S, S33G, S55G, A99G, H106A
VL: B1 VL with I30L, V33L, L47V, R54L, N93E, T94N
notes: Group III
B20: 366_H04 (antibody, V domains shown)
VH: B1 VH with S33G, G50N, S55G, G59S, A99G
VL: B1 VL with I30L, S31T, V33L, N93S, T94S
notes: Group III
B21: 367_A08 (antibody, V domains shown)
VH: B1 VH with S33G, S49A, S55G, K58T, G59S, A99G
VL: B1 VL with I30L, S31T, V33L, A51V, N93D, T94S
notes: Group III
B22: 366_B09 (antibody, V domains shown)
VH: B1 VH with D30S, S31D, S33G, N35H, G50S, G59S, N101T
VL: B1 VL with I30L, S31T, V33L, L47V, A55H, N93D, T94S
notes: Group II
B23: 366_D01 (antibody, V domains shown)
VH: B1 VH with D30S, S33G, N35H, G50S, S55G, K58T
VL: B1 VL with I30L, S31T, N93E, T94N
notes: Group I
B24: 366_A04 (antibody, V domains shown)
VH: B1 VH with D30S, S33G, S49A, S55G, K58T, G59S, H106A
VL: B1 VL with I30L, S31T, V33L, L47V, R54L, Y92D, N93D, T94S
notes: Group I
B25: 365_G04 (antibody, V domains shown)
VH: B1 VH with S49A, S55G, K58T, A99G
VL: B1 VL with I30V, L47V, R54L, N93D
notes: Group III
B26: 366_G02 (antibody, V domains shown)
VH: B1 VH with S33G, N35H, G50S, S55G, K58T, G59S, N101T
VL: B1 VL with I30L, S31T, V33L, A55H, Y92D, N93D, T94N
notes: Group II
B27: 366_G06 (antibody, V domains shown)
VH: B1 VH with D30S, S33G, N35H, S49A, G50S, S55G, K58T
VL: B1 VL with I30V, L47V, N93D, T94N
notes: Group I
B28: 366_C05 (antibody, V domains shown)
VH: B1 VH with S31D, S33G, N35H, G50S, S55G, K58T, N101T
VL: B1 VL with V33L, L47V, N93D, T94S
notes: Group II
B29: 366_E07 (antibody, V domains shown)
VH: B1 VH with S33G, N35H, S49A, S55G, K58T, G59S, N101T, H106A
VL: B1 VL with I30L, S31T, V33L, L47V, A55H, Y92D, T94S
notes: Group II
B30: 367_A03 (antibody, V domains shown)
VH: B1 VH with S33G, S49A, S55G, K58T, G59S, A99G, H106A
VL: B1 VL with I30L, S31T, A51T, A55H, N93D, T94S
notes: Group III
B31: 366_D03 (antibody, V domains shown)
VH: B1 VH with S33G, N35H, G50S, S55G, K58T
VL: B1 VL with I30L, N93D, T94L
notes: Group I
B32: 365_H08 (antibody, V domains shown)
VH: B1 VH with D30S, S33G, N35H, S49A, G50S, S55G, G59S, H106A
VL: not shown
notes: Group I
B33: 365_H07 (antibody, V domains shown)
VH: B1 VH with S55G, K58T, G59S, A99G
VL: B1 VL with I30S, S31T, A55H, N93E, T94N
notes: Group III
B34: 366_E08 (antibody, V domains shown)
VH: B1 VH with D30S, S31D, G50N, S55G, K58T, G59S, A99G
VL: B1 VL with I30V, S31T, V33L, A55H, N93S, T94N
notes: Group III
B35: 365_G03 (antibody, V domains shown)
VH: B1 VH with D30S, S33G, S49A, A99G
VL: B1 VL with I30V, V33L
notes: Group III

These binders were tested against T1, human ACVR2A (human, UniProt P27037 20-135, limits assumed) (assay: ELISA).
T1 construct: also called activin receptor, type II A
In short: (§1)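 Monoclonal antibodies were first applied to human or mouse ACVR2A, alongside biotinylated goat anti-human kappa light chain (positive control) and human Fc (negative control); binding was then determined by ELISA.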
Further: test concentration or dose not given here.

T1 sequence (P27037 20-135 limits assumed): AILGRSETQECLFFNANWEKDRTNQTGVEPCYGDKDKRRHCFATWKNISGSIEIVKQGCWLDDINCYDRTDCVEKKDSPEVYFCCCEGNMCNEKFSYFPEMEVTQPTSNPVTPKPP

optical density [OD]	Binder
2.01	B1
2.2	B2
1.8	B3
2.71	B4
2.45	B5
2.05	B6
2.69	B7
2.34	B8
2.34	B9
2.42	B10
2.53	B11
2.12	B12
2.41	B13
2.42	B14
2.79	B15
2.06	B16
2.62	B17
2.15	B18

optical density [OD]	Binder
2.44	B19
2.69	B20
2.06	B21
2.3	B22
2.36	B23
1.82	B24
2.1	B25
2.16	B26
2.68	B27
2.01	B28
1.68	B29
2.58	B30
2.23	B31
2.67	B32
2.51	B33
1.97	B34
2.24	B35

The binders below were run against mouse ACVR2A (mouse, UniProt P27038 20-135, limits assumed) (assay: ELISA).
In short: as §1

mouse ACVR2A, sequence (P27038 20-135 limits assumed): as the sequence (P27037 20-135 limits assumed) above, with K20R, V73I counted along it

optical density [OD]	Binder
2.14	B1
2.02	B2
1.92	B3
2.83	B4
2.69	B5
2.21	B6
2.72	B7
2.57	B8
2.46	B9
2.6	B10
2.58	B11
2.51	B12
2.77	B13
2.43	B14
2.77	B15
2.1	B16
2.93	B17
2.11	B18

optical density [OD]	Binder
2.54	B19
2.83	B20
2.09	B21
2.53	B22
2.46	B23
1.99	B24
2.48	B25
2.32	B26
2.82	B27
2.36	B28
1.86	B29
2.45	B30
2.38	B31
2.61	B32
2.75	B33
2	B34
2.54	B35

Each binder was assayed against T2, biotinylated goat anti-human kappa light chain (assay: ELISA, positive control).
T2 construct: positive control of the ELISA
In short: as §1

optical density [OD]	Binder
3.5	B1
3.34	B2
3.22	B3
3.59	B4
3.58	B5
3.52	B6
3.66	B7
3.36	B8
3.6	B9
3.47	B10
3.5	B11
3.5	B12
3.44	B13
3.37	B14
3.71	B15
3.58	B16
3.67	B17
3.6	B18

optical density [OD]	Binder
3.35	B19
3.52	B20
3.34	B21
3.39	B22
3.48	B23
3.4	B24
3.29	B25
3.56	B26
3.41	B27
3.4	B28
3.14	B29
3.44	B30
3.48	B31
3.59	B32
3.43	B33
3.35	B34
3.54	B35
